# Measured values taken from patent US20190040153A1 (Novartis, published 2019).
# T1: human β-klotho (soluble, recombinant) (human, UniProt Q86Z14 53-997, limits assumed)
# T1 construct: also called recombinant human β-klotho; beta-klotho
# T1 sequence: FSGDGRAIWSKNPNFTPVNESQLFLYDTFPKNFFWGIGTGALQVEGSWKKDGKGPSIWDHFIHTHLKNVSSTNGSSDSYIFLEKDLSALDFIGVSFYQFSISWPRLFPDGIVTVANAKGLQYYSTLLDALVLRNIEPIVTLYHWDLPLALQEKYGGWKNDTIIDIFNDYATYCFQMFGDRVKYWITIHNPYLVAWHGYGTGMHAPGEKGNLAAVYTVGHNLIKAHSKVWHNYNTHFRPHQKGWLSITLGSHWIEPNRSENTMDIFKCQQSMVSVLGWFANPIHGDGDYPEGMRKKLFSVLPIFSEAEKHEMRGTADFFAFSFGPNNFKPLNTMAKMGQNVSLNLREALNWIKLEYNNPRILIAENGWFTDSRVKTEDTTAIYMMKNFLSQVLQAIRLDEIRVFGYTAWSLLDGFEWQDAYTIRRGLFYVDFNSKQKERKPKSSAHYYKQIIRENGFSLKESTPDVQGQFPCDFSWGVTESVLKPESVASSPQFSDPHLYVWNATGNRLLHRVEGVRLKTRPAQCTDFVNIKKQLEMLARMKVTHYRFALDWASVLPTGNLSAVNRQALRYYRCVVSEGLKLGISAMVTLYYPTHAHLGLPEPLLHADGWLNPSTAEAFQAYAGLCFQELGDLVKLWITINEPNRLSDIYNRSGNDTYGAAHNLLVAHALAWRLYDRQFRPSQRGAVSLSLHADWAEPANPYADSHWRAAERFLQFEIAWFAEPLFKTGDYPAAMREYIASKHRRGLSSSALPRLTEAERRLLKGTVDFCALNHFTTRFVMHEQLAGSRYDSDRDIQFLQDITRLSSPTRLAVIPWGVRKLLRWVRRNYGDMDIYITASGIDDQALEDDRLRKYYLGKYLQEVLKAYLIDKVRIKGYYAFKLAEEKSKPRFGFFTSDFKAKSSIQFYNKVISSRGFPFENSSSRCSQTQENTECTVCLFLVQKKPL
# Columns and labels:
# [1] = target: human FGFR1c_β-klotho receptor complex (on HEK293 cells) (human, UniProt P11362 22-822); assay: cell-based or functional assay
# human FGFR1c_β-klotho receptor complex (on HEK293 cells), sequence (chain, as listed by the source, chain 1 of 2): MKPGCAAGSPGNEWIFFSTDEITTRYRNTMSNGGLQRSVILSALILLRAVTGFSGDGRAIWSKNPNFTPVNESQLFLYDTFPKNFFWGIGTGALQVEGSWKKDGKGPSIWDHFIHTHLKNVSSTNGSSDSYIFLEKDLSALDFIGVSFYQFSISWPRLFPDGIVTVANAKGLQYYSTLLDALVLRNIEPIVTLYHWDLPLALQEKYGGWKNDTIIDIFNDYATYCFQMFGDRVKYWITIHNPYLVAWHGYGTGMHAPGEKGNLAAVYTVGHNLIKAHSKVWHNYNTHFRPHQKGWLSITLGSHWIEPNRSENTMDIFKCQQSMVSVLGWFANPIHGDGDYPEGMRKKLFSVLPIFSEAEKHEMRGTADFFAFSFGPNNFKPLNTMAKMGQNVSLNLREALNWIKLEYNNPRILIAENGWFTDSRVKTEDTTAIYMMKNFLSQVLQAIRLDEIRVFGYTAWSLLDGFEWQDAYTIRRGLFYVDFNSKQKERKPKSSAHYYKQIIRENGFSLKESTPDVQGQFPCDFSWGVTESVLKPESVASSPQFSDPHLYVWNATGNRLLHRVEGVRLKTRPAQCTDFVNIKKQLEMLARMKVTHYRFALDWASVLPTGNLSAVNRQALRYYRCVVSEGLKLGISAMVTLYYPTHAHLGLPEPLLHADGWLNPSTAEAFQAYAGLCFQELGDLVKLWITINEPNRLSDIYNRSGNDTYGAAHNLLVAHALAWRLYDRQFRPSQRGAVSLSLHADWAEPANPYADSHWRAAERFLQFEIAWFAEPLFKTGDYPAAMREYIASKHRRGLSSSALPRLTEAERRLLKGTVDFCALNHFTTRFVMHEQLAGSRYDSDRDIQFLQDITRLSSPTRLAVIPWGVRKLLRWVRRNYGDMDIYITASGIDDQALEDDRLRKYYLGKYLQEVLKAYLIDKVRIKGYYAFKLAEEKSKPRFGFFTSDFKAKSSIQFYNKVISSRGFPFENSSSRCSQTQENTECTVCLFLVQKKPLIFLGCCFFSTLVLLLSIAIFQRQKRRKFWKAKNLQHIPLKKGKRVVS
# human FGFR1c_β-klotho receptor complex (on HEK293 cells), sequence (P11362 22-822, chain 2 of 2): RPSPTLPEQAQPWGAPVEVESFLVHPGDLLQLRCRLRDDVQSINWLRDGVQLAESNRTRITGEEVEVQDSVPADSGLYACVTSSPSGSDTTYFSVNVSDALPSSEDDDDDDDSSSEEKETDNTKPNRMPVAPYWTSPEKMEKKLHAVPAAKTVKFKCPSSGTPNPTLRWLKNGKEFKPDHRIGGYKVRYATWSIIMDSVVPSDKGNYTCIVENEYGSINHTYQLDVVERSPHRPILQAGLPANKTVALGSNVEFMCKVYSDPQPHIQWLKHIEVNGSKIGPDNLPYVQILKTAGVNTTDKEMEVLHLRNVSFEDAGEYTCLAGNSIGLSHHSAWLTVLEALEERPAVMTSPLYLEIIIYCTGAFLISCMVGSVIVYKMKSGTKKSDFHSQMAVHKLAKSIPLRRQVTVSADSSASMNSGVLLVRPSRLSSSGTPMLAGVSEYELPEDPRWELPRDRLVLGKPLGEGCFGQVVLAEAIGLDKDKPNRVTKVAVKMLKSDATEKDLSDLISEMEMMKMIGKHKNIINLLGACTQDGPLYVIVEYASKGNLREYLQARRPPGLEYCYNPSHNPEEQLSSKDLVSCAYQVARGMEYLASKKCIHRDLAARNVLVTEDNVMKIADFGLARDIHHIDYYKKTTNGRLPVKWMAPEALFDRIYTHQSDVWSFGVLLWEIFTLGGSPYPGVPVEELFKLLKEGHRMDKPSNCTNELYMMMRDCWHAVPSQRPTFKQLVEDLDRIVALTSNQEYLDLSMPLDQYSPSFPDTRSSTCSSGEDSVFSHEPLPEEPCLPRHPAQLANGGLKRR
# [2] = target: cynomolgus monkey FGFR1c_β-klotho receptor complex (on HEK293 cells) (cynomolgus monkey; human, UniProt A0A2K5WB58 1-1044; P11362 22-822); assay: cell-based or functional assay
# cynomolgus monkey FGFR1c_β-klotho receptor complex (on HEK293 cells), sequence (chain, as listed by the source, chain 1 of 2): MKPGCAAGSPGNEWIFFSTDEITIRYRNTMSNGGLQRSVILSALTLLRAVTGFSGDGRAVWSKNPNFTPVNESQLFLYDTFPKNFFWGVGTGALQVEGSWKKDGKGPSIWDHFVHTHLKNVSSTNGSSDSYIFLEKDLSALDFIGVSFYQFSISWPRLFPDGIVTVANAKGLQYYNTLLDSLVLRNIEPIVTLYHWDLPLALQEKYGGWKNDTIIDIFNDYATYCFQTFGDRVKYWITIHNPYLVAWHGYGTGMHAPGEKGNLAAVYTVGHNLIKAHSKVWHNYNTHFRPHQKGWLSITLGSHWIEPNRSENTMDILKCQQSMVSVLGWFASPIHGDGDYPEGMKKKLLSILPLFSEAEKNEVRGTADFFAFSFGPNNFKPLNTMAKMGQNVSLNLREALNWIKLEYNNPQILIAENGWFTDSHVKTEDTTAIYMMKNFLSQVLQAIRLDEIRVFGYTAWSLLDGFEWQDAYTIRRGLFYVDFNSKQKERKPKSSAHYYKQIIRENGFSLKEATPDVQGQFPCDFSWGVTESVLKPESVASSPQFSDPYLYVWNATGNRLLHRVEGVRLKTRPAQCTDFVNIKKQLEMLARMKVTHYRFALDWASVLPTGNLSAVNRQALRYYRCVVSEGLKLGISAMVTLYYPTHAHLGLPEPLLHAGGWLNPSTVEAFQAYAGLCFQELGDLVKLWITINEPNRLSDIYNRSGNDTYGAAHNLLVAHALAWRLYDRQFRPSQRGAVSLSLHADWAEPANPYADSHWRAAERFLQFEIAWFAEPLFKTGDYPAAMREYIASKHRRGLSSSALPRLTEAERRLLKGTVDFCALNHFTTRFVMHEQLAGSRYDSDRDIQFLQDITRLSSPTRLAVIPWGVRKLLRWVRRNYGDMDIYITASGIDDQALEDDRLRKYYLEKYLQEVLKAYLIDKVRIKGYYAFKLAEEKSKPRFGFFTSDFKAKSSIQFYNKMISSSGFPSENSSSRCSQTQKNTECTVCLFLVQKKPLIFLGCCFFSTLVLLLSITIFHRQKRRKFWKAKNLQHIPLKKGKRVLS
# cynomolgus monkey FGFR1c_β-klotho receptor complex (on HEK293 cells), sequence (P11362 22-822, chain 2 of 2): as the sequence (P11362 22-822, chain 2 of 2) above
# [3] = target: T1, human β-klotho (soluble, recombinant); assay: Biacore kinetics; IgG captured by anti-human Fc, human β-klotho as analyte
# Experimental: Binding affinities of antibodies were determined using Biacore kinetic analysis. A Series S Sensor Chip CMS (GE Healthcare, Cat. No. BR-1005-30) was equilibrated to ambient temperature for approximately 30 minutes The system was primed with 1×HBS-EP+ buffer (10×soln, GE Healthcare, Cat. No. BR-1006-69) and the chip was loaded into the Biacore instrument. The chip was normalized using BIAnormalizing (GE Healthcare, Cat. No. BR-1006-51) solution and the chip was conditioned with 50 mM NaOH using a flow rate of 60 μL/minute for all flow paths. The 30 second injection was repeated three times with a wait time of 60 seconds. 10 mM sodium acetate pH 5.0 was injected at 60 μL/minute for 120 seconds and repeated twice. After a new cycle was started for immobilizing the anti-human IgG Fc using the Human Antibody Capture Kit (GE Healthcare, Cat. No. BR-1008-39). The anti-human Fc Ab was diluted to 50 μg/mL in immobilization buffer (10 mM sodium acetate pH 5.0). The amine coupling reagents were mixed 1:1 (EDC and NHS) and injected for 7 minutes at 10 μL/minute. Then anti-human Fc Ab was injected for 6 minutes at 10 μL/minute. Lastly ethanolamine was injected for 7 minutes at 10 μL/minute with a wait time of 60 seconds. This should result in immobilization of approximately 8000-10000 RU. Then we performed test injections for an Rmax of 10 RUs (capture levels=˜28 RUs) for NOV004, NOV005 and NOV006. This was done using a flow rate of […] and a 3 M MgCl₂ regeneration buffer. Each flow cell was evaluated each time due to changes in chip surface, affinity of IgGs, IgG protein quality and differences in dilutions. We started with an IgG concentration of 0.5 ug/mL and increased (or decreased) the concentration depending on the results from the sample injections. […] After capturing parameters were determined for each antibody in each flow cell, human β-klotho at various concentrations was passed over the chip and kₐ (1/Ms), kd (1/s), KD (M), and Rmax (RU) were calculated by Biacore kinetics.
# In vitro work was done to show the binding and cell activity properties of NOV004, NOV005, and NOV006. […]
pERK activation EC50 [1] [nM],pERK activation EC50 [2] [nM],Kd [3] [nM],Binder
~4,~18,~0.4,"NOV006 (antibody, human IgG1, kappa, V domains shown, Humanized mAb derived from mouse hybridoma 127F19) VH: QVQLQESGPGLVKPSQTLSLTCTVSGYSITSGYTWHWIRQHPGKGLEWIGYIHYSVYTNYNPSLKSRVTISRDTSKNQFSLKLSSVTAADTAVYYCARRTTSLERYFDVWGQGTLVTVSS VL: EIVMTQSPATLSLSPGERATLSCRASQDISNYLNWYQQKPGQAPRLLIYYTSRLQSGIPARFSGSGSGADYTLTISSLQPEDFAVYFCQQGNTLPYTFGQGTKLEIKR"
~3,~20,~0.3,"NOV004 (antibody, human IgG1, kappa, V domains shown, Humanized mAb derived from mouse hybridoma 127F19) VH: EVQLVESGGGLVKPGGSLRLSCAVSGYSITSGYTWHWVRQAPGKGLEWLSYIHYSVYTNYNPSVKGRFTISRDTAKNSFYLQMNSLRAEDTAVYYCARRTTSLERYFDVWGQGTLVTVSS VL: DIQMTQSPSSLSASVGDRVTITCQASQDISNYLNWYQQKPGKAPKLLIYYTSRLQSGVPSRFTGSGSGADYTFTISSLQPEDIATYFCQQGNTLPYTFGQGTKLEIKR"
~3,~16,~0.3,"NOV005 (antibody, human IgG1, kappa, V domains shown, Humanized mAb derived from mouse hybridoma 127F19) VH: QVQLQESGPGLVKPSQTLSLTCTVSGYSITSGYTWHWIRQHPGKGLEWIGYIHYSVYTNYNPSLKSRVTISRDTSKNQFSLKLSSVTAADTAVYYCARRTTSLERYFDVWGQGTLVTVSS VL: DIQMTQSPSSLSASVGDRVTITCQASQDISNYLNWYQQKPGKAPKLLIYYTSRLQSGVPSRFSGSGSGADYTFTISSLQPEDIATYFCQQGNTLPYTFGQGTKLEIKR"
